Measurements as given in patent US20140087995A1 (published 2014).
Numbered stars: 1 amine (or outer) side, 2 acyl side, 3 side chain; on linkers, the order of the positions; unused ones are H or OH. Bridge positions count the residues as written; N and C are the ends. * marks the point of attachment. C20 diacid = O=C(O)CCCCCCCCCCCCCCCCCCC(=O)*; γGlu = O=C(O)[C@H](CCC(=O)[*:2])N[*:1]

T1: rat calcitonin receptor (rat, UniProt P32214 25-516)
T1 construct: whole, on cells; Used as membranes prepared from the transfected cells; also called rCTR; rat calcitonin (a) receptor
T1 sequence (looked up): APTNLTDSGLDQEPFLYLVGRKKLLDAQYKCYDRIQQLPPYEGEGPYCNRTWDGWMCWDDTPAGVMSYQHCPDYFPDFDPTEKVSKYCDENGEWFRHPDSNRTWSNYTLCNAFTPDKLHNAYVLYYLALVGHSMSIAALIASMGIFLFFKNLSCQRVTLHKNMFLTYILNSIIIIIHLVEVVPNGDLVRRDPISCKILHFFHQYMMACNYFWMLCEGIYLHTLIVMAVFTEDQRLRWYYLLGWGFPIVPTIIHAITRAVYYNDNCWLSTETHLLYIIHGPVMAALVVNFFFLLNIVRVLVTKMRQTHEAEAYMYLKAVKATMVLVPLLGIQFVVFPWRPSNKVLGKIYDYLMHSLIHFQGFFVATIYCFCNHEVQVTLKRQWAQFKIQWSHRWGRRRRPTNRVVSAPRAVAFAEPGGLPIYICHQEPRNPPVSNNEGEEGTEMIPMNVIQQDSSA

T2: rat amylin receptor (rat calcitonin receptor + rat RAMP 3) (rat, UniProt P32214 25-516; Q9JJ73 23-147)
T2 construct: whole, on cells; Used as membranes prepared from the transfected cells; also called rAmylin-R; rat amylin 3(a) receptor
T2 sequence (looked up) 1: T1 sequence (looked up)
T2 sequence (looked up) 2: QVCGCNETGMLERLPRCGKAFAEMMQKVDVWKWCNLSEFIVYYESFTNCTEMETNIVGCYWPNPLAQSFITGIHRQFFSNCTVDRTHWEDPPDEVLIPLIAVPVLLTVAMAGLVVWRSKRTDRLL

T3: human calcitonin receptor (human, UniProt P30988 25-474)
T3 construct: whole, on cells; Used as membranes prepared from the transfected cells (Assay VII); also called hCTR; hCT
T3 sequence (looked up): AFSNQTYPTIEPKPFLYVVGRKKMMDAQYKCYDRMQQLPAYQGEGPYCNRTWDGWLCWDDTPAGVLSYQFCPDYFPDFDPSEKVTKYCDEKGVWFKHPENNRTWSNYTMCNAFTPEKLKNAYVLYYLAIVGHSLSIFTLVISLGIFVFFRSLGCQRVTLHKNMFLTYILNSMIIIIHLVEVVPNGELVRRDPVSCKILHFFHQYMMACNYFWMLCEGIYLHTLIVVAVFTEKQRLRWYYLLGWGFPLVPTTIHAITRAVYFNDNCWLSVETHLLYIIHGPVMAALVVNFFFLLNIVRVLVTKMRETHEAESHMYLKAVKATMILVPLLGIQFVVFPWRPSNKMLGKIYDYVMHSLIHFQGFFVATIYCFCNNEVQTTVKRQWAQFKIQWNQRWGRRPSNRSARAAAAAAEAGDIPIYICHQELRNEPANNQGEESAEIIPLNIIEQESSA

B1: N^α1-[(4S)-4-carboxy-4-(19-carboxynonadecanoylamino)butanoyl]-[Glu14,Arg17,Pro21,Pro27,Arg35]-h-amylin (peptide)
peptide: {C20 diacid-γGlu}-KCNTATCATQRLAEFLRHSSPNFGAIPSSTNVGSRTY-NH2
modifications: disulfide 2-7
SMILES: CC[C@H](C)[C@H](NC(=O)[C@H](C)NC(=O)CNC(=O)[C@H](Cc1ccccc1)NC(=O)[C@H](CC(N)=O)NC(=O)[C@@H]1CCCN1C(=O)[C@H](CO)NC(=O)[C@H](CO)NC(=O)[C@H](Cc1c[nH]cn1)NC(=O)[C@H](CCCNC(=N)N)NC(=O)[C@H](CC(C)C)NC(=O)[C@H](Cc1ccccc1)NC(=O)[C@H](CCC(=O)O)NC(=O)[C@H](C)NC(=O)[C@H](CC(C)C)NC(=O)[C@H](CCCNC(=N)N)NC(=O)[C@H](CCC(N)=O)NC(=O)[C@@H](NC(=O)[C@H](C)NC(=O)[C@@H]1CSSC[C@H](NC(=O)[C@H](CCCCN)NC(=O)CC[C@H](NC(=O)CCCCCCCCCCCCCCCCCCC(=O)O)C(=O)O)C(=O)N[C@@H](CC(N)=O)C(=O)N[C@@H]([C@@H](C)O)C(=O)N[C@@H](C)C(=O)N[C@@H]([C@@H](C)O)C(=O)N1)[C@@H](C)O)C(=O)N1CCC[C@H]1C(=O)N[C@@H](CO)C(=O)N[C@@H](CO)C(=O)N[C@H](C(=O)N[C@@H](CC(N)=O)C(=O)N[C@H](C(=O)NCC(=O)N[C@@H](CO)C(=O)N[C@@H](CCCNC(=N)N)C(=O)N[C@H](C(=O)N[C@@H](Cc1ccc(O)cc1)C(N)=O)[C@@H](C)O)C(C)C)[C@@H](C)O
notes: Derivative of human amylin; also called compound 16
B2: N^α1-[(4S)-4-carboxy-4-(19-carboxynonadecanoylamino)butanoyl]-[Glu14,Arg17,Pro21,Pro27,His34]-h-amylin (peptide)
peptide: {C20 diacid-γGlu}-KCNTATCATQRLAEFLRHSSPNFGAIPSSTNVGHNTY-NH2
modifications: disulfide 2-7
SMILES: CC[C@H](C)[C@H](NC(=O)[C@H](C)NC(=O)CNC(=O)[C@H](Cc1ccccc1)NC(=O)[C@H](CC(N)=O)NC(=O)[C@@H]1CCCN1C(=O)[C@H](CO)NC(=O)[C@H](CO)NC(=O)[C@H](Cc1c[nH]cn1)NC(=O)[C@H](CCCNC(=N)N)NC(=O)[C@H](CC(C)C)NC(=O)[C@H](Cc1ccccc1)NC(=O)[C@H](CCC(=O)O)NC(=O)[C@H](C)NC(=O)[C@H](CC(C)C)NC(=O)[C@H](CCCNC(=N)N)NC(=O)[C@H](CCC(N)=O)NC(=O)[C@@H](NC(=O)[C@H](C)NC(=O)[C@@H]1CSSC[C@H](NC(=O)[C@H](CCCCN)NC(=O)CC[C@H](NC(=O)CCCCCCCCCCCCCCCCCCC(=O)O)C(=O)O)C(=O)N[C@@H](CC(N)=O)C(=O)N[C@@H]([C@@H](C)O)C(=O)N[C@@H](C)C(=O)N[C@@H]([C@@H](C)O)C(=O)N1)[C@@H](C)O)C(=O)N1CCC[C@H]1C(=O)N[C@@H](CO)C(=O)N[C@@H](CO)C(=O)N[C@H](C(=O)N[C@@H](CC(N)=O)C(=O)N[C@H](C(=O)NCC(=O)N[C@@H](Cc1c[nH]cn1)C(=O)N[C@@H](CC(N)=O)C(=O)N[C@H](C(=O)N[C@@H](Cc1ccc(O)cc1)C(N)=O)[C@@H](C)O)C(C)C)[C@@H](C)O
notes: Derivative of human amylin; also called compound 17
B3: N^α1-[(4S)-4-carboxy-4-(19-carboxynonadecanoylamino)butanoyl]-[Glu14,Arg17,Pro21,Pro27,His35]-h-amylin (peptide)
peptide: {C20 diacid-γGlu}-KCNTATCATQRLAEFLRHSSPNFGAIPSSTNVGSHTY-NH2
modifications: disulfide 2-7
SMILES: CC[C@H](C)[C@H](NC(=O)[C@H](C)NC(=O)CNC(=O)[C@H](Cc1ccccc1)NC(=O)[C@H](CC(N)=O)NC(=O)[C@@H]1CCCN1C(=O)[C@H](CO)NC(=O)[C@H](CO)NC(=O)[C@H](Cc1c[nH]cn1)NC(=O)[C@H](CCCNC(=N)N)NC(=O)[C@H](CC(C)C)NC(=O)[C@H](Cc1ccccc1)NC(=O)[C@H](CCC(=O)O)NC(=O)[C@H](C)NC(=O)[C@H](CC(C)C)NC(=O)[C@H](CCCNC(=N)N)NC(=O)[C@H](CCC(N)=O)NC(=O)[C@@H](NC(=O)[C@H](C)NC(=O)[C@@H]1CSSC[C@H](NC(=O)[C@H](CCCCN)NC(=O)CC[C@H](NC(=O)CCCCCCCCCCCCCCCCCCC(=O)O)C(=O)O)C(=O)N[C@@H](CC(N)=O)C(=O)N[C@@H]([C@@H](C)O)C(=O)N[C@@H](C)C(=O)N[C@@H]([C@@H](C)O)C(=O)N1)[C@@H](C)O)C(=O)N1CCC[C@H]1C(=O)N[C@@H](CO)C(=O)N[C@@H](CO)C(=O)N[C@H](C(=O)N[C@@H](CC(N)=O)C(=O)N[C@H](C(=O)NCC(=O)N[C@@H](CO)C(=O)N[C@@H](Cc1c[nH]cn1)C(=O)N[C@H](C(=O)N[C@@H](Cc1ccc(O)cc1)C(N)=O)[C@@H](C)O)C(C)C)[C@@H](C)O
notes: Derivative of human amylin; also called compound 18
B4: N^α1-[(4S)-4-carboxy-4-(19-carboxynonadecanoylamino)butanoyl]-[Glu14,Arg17,Pro21,Pro27,Pro29]-h-amylin (peptide)
peptide: {C20 diacid-γGlu}-KCNTATCATQRLAEFLRHSSPNFGAIPSPTNVGSNTY-NH2
modifications: disulfide 2-7
SMILES: CC[C@H](C)[C@H](NC(=O)[C@H](C)NC(=O)CNC(=O)[C@H](Cc1ccccc1)NC(=O)[C@H](CC(N)=O)NC(=O)[C@@H]1CCCN1C(=O)[C@H](CO)NC(=O)[C@H](CO)NC(=O)[C@H](Cc1c[nH]cn1)NC(=O)[C@H](CCCNC(=N)N)NC(=O)[C@H](CC(C)C)NC(=O)[C@H](Cc1ccccc1)NC(=O)[C@H](CCC(=O)O)NC(=O)[C@H](C)NC(=O)[C@H](CC(C)C)NC(=O)[C@H](CCCNC(=N)N)NC(=O)[C@H](CCC(N)=O)NC(=O)[C@@H](NC(=O)[C@H](C)NC(=O)[C@@H]1CSSC[C@H](NC(=O)[C@H](CCCCN)NC(=O)CC[C@H](NC(=O)CCCCCCCCCCCCCCCCCCC(=O)O)C(=O)O)C(=O)N[C@@H](CC(N)=O)C(=O)N[C@@H]([C@@H](C)O)C(=O)N[C@@H](C)C(=O)N[C@@H]([C@@H](C)O)C(=O)N1)[C@@H](C)O)C(=O)N1CCC[C@H]1C(=O)N[C@@H](CO)C(=O)N1CCC[C@H]1C(=O)N[C@H](C(=O)N[C@@H](CC(N)=O)C(=O)N[C@H](C(=O)NCC(=O)N[C@@H](CO)C(=O)N[C@@H](CC(N)=O)C(=O)N[C@H](C(=O)N[C@@H](Cc1ccc(O)cc1)C(N)=O)[C@@H](C)O)C(C)C)[C@@H](C)O
notes: Derivative of human amylin; also called compound 37
B5: N^α1-[(4S)-4-carboxy-4-(19-carboxynonadecanoylamino)butanoyl]-[Glu14,Arg17,Pro21,Pro27,Pro31]-h-amylin (peptide)
peptide: {C20 diacid-γGlu}-KCNTATCATQRLAEFLRHSSPNFGAIPSSTPVGSNTY-NH2
modifications: disulfide 2-7
SMILES: CC[C@H](C)[C@H](NC(=O)[C@H](C)NC(=O)CNC(=O)[C@H](Cc1ccccc1)NC(=O)[C@H](CC(N)=O)NC(=O)[C@@H]1CCCN1C(=O)[C@H](CO)NC(=O)[C@H](CO)NC(=O)[C@H](Cc1c[nH]cn1)NC(=O)[C@H](CCCNC(=N)N)NC(=O)[C@H](CC(C)C)NC(=O)[C@H](Cc1ccccc1)NC(=O)[C@H](CCC(=O)O)NC(=O)[C@H](C)NC(=O)[C@H](CC(C)C)NC(=O)[C@H](CCCNC(=N)N)NC(=O)[C@H](CCC(N)=O)NC(=O)[C@@H](NC(=O)[C@H](C)NC(=O)[C@@H]1CSSC[C@H](NC(=O)[C@H](CCCCN)NC(=O)CC[C@H](NC(=O)CCCCCCCCCCCCCCCCCCC(=O)O)C(=O)O)C(=O)N[C@@H](CC(N)=O)C(=O)N[C@@H]([C@@H](C)O)C(=O)N[C@@H](C)C(=O)N[C@@H]([C@@H](C)O)C(=O)N1)[C@@H](C)O)C(=O)N1CCC[C@H]1C(=O)N[C@@H](CO)C(=O)N[C@@H](CO)C(=O)N[C@H](C(=O)N1CCC[C@H]1C(=O)N[C@H](C(=O)NCC(=O)N[C@@H](CO)C(=O)N[C@@H](CC(N)=O)C(=O)N[C@H](C(=O)N[C@@H](Cc1ccc(O)cc1)C(N)=O)[C@@H](C)O)C(C)C)[C@@H](C)O
notes: Derivative of human amylin; also called compound 31

Biological target: T1, rat calcitonin receptor
Assay: ratio IC50 rat calcitonin receptor / IC50 rat amylin receptor (Assays VIII and VI)

First: B1
Second: B2
The “Ratio rCT/rAmylin binding” value of the first is higher: 45.6 for the first, 35.9 for the second.

Going from B3 to B4, the “Ratio rCT/rAmylin binding” value falls from 27.3 to 14.3.

In the case of B5, the “Ratio rCT/rAmylin binding” value is reported as 42.8.

Biological target: T1, rat calcitonin receptor
Assay: SPA competition with 125I-calcitonin, membranes of BHK cells with rat calcitonin receptor (Assay VIII)

Going from B1 to B2, the IC50 rises from 55.2 nM to 97.2 nM (1.8-fold).

First: B3
Second: B4
The IC50 of the first is 1.8-fold higher: 13 nM for the first, 7.35 nM for the second.

Binder B5 has an IC50 of 26.5 nM.

Biological target: T2, rat amylin receptor (rat calcitonin …)
Assay: SPA competition with 125I-rat amylin, membranes of BHK cells with rat calcitonin receptor + rat RAMP3 (Assay VI)

First: B1
Second: B2
The IC50 of the first is 2.2-fold lower: 1.21 nM for the first, 2.71 nM for the second.

B3 and B4 are within 1.5-fold of each other in IC50: 0.476 nM for the first, 0.514 nM for the second.

For B5, the IC50 was 0.619 nM.

Biological target: T3, human calcitonin receptor
Assay: ratio IC50 human calcitonin receptor / IC50 human amylin receptor (Assays VII and V)
Summary of the method: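 Scintillation proximity competition binding on cell membranes at 35 ng/μL with SPA beads, in 50 mM Hepes pH 7.4, 1 mM CaCl2, 5 mM MgCl₂, 0.1% OA, 0.02% Tween20. Incubated 120 min at 25° C with shaking. IC₅₀ from one-site competition fit.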

First: B1
Second: B2
The “Ratio hCT/hAmylin binding” value of the first is higher: 19.1 for the first, 12.5 for the second.

Going from B3 to B4, the “Ratio hCT/hAmylin binding” value falls from 9.2 to 2.3.

In the case of B5, the “Ratio hCT/hAmylin binding” value is reported as 16.
